Experimental data as given in patent US20250000944A1, “USE OF RECOMBINANT CALRETICULIN IN HAIR GROWTH, HAIR BREEDING, HAIR PROTECTION OR ANTI-HAIR LOSS AND RELATED PRODUCT” (BEIJING YITUBAIHUI BIOTECH CO., LTD, priority 2021, published 2025).
“Also recorded” adds a separate entry of the source.

B1: CRT-1: recombinantly expressed full-length CRT (1-400 aa), amino acid sequence SEQ ID NO: 1, expressed in Pichia pastoris (protein)
chain: EPAVYFKEQFLDGDGWTSRWIESKHKSDFGKFVLSSGKFYGDEEKDKGLQTSQDARFYALSASFEPFSNKGQTLVVQFTVKHEQNIDCGGGYVKLFPNSLDQTDMHGDSEYNIMFGPDICGPGTKKVHVIFNYKGKNVLINKDIRCKDDEFTHLYTLIVRPDNTYEVKIDNSQVESGSLEDDWDFLPPKKIKDPDASKPEDWDERAKIDDPTDSKPEDWDKPEHIPDPDAKKPEDWDEEMDGEWEPPVIQNPEYKGEWKPRQIDNPDYKGTWIHPEIDNPEYSPDPSIYAYDNFGVLGLDLWQVKSGTIFDNFLITNDEAYAEEFGNETWGVTKAAEKQMKDKQDEEQRLKEEEEDKKRKEEEEAEDKEDDEDKDEDEEDEEDKEEDEEEDVPGQAKDEL
B2: CRT-3: fragment (1-291 aa) of recombinantly expressed CRT, amino acid sequence SEQ ID NO: 12 (protein)
chain: EPAVYFKEQFLDGDGWTSRWIESKHKSDFGKFVLSSGKFYGDEEKDKGLQTSQDARFYALSASFEPFSNKGQTLVVQFTVKHEQNIDCGGGYVKLFPNSLDQTDMHGDSEYNIMFGPDICGPGTKKVHVIFNYKGKNVLINKDIRCKDDEFTHLYTLIVRPDNTYEVKIDNSQVESGSLEDDWDFLPPKKIKDPDASKPEDWDERAKIDDPTDSKPEDWDKPEHIPDPDAKKPEDWDEEMDGEWEPPVIQNPEYKGEWKPRQIDNPDYKGTWIHPEIDNPEYSPDPSIYAY

Key:
[1] = system: androgenic alopecia model; test: First experiment: testosterone-induced androgenic alopecia model, hair observed by dermatoscope and scanning electron microscopy; type: in vivo, C57BL/6 male mice; conditions: 21 days, proteins 0.21 mg/ml injected on the back once a day, minoxidil 5% external, finasteride 13 μg/mL; for changes in hair observed by dermatoscope: compared with the model group (frizzy hair)
Description: Experimental animals: C57BL/6 male mice, 6-7 weeks old, weighing (20±2) g, were provided by Beijing Vital River Laboratory Animal Technology Co. Ltd., with the animal license number of SCXK (Beijing) 2021-0006. They were kept in a 12 h light/12 h dark environment, with free access to food and water. The mice were divided into normal NC group (NC), model group (Model), positive control-minoxidil group (Minoxidil), positive control-finasteride group (Finasteride), experimental group A and experimental group B. The proteins were stored in a −70° C. refrigerator and diluted with physiological saline when used. Experimental group A used rh-CRT-1, with a concentration of 0.21 mg/ml. Experimental group B used rh-CRT-2, with a concentration of 0.21 mg/ml. There were 6 mice in each group.
The main reagents used are as follows: 4% paraformaldehyde (Beijing Solarbio Technology Co., Ltd., China), isoflurane (Rayward, China), testosterone (Shanghai Standard Biotechnology Co., Ltd., China), paraffin sectioner (Thermo, USA), small animal anesthesia machine (Rayward, China), and inverted microscope (Olympus, Japan).
Modeling and drug administration: First, the androgenic alopecia model was established. One day before the modeling, the hair in the central part of the back of the experimental animal was removed with a skin preparation knife, and the prepared area was depilated with a depilatory cream. After 24 hours of depilation, the modeling agent (testosterone, 5.0 mg/mL) was subcutaneously injected into the neck of the mice in groups except the NC group, with a total dose of 0.2 mL/mouse. The mice in the NC group were injected with an equal amount of normal saline. After modeling, the mice were administrated with drugs. The NC group was injected with normal saline once a day, 0.15 mL/mouse each time. The experimental group A, experimental group B and positive control group were injected with modeling agent (testosterone), and administrated with drugs after 2 hours, and the dose of modeling agent was 0.2 mL/mouse. The experimental group A and experimental group B were injected on the back once a day, 0.15 mL/mouse each time. The positive control minoxidil group was applied 5% minoxidil externally, 0.01 mL/mouse, once a day. The positive control finasteride group was applied finasteride at a concentration of 13 μg/mL, 0.2 mL/mouse, once a day.

[2] = system: AGA (androgenic alopecia) model mice; test: Third experiment: hair growth score in DHT-induced AGA model mice; type: in vivo, C57BL/6N male mice; conditions: Day 17
Description: C57BL/6N male mice, 6-7 weeks old, weighing (18-20) g, 50 mice, with the animal license number of SCXK (Beijing) 2021-0006, were kept in a 12 h light/12 h dark environment, with free access to food and water. Adaptive feeding was performed for about 1 week.
The hair in an area of about 2 cm×3 cm at the border of the spine was shaved using an electric shaver. The depilatory area was applied with 8% sodium sulfide solution. After 90±10 s, the depilatory area on the back was cleaned with cotton balls dipped in water, the residual sodium sulfide was washed away with a washing bottle, and then the mice were wiped dry. Because the hair follicle cycle of mice was in the resting phase at this time, the mouse skin was pink. Mice were randomly divided into groups using Excel software, 10 mice in each group, and the modeling was established after 24 h and the drug was administered for 17 consecutive days. The AGA model was established by injecting dihydrotestosterone into the experimental mice. Dihydrotestosterone (DHT) solution was injected subcutaneously at multiple points every day, 100 μL/mouse (5 mg/kg body weight), and then the drug was administered after 3 h of absorption. CRT-2 and CRT-1 protein solutions were applied externally. 100 μL of protein solution was applied, and 100 μl of minoxidil MNX was applied. The CRT and MNX combination group was first applied with CRT-2 protein solution and then MNX 2 hours later. The solvent formula comprised 50% ethanol, 20% propylene glycol, and 30% pure water.
Scoring was based on the coverage of hair growth: • 0 points: no hair growth, pink in the hair removal area; • 1 point: gray in the hair removal area, hair coverage area E<20%; • 2 points: black in the hair removal area, hair coverage area 20%<E<40%; • 3 points: black in the hair removal area with a little hair growth, hair coverage area 40%<E<60%; • 4 points: black in the hair removal area with some hair growth, hair coverage area 60%<E<80%; • 5 points: black in the hair removal area, hair coverage area 80%<E<100%.
The skin color changes of mice were observed before administration every day. The hair removal time of mice was designated as Day 0, the first day of administration was designated as Day 1, and so on. The hair growth of each mouse was recorded and analyzed on Day 7, Day 9, Day 11, Day 13, Day 15, and Day 17.

[3] = system: AGA (androgen alopecia) model mice; test: Fourth experiment: hair growth score in DHT-induced AGA model mice; type: in vivo, C57BL/6N male mice; conditions: Day 17; for hair growth score compared with the Model group: external application 100 μL, CRT 0.35 mg/ml, MNX 5 mg/ml
Description: The experimental animals were the same as in the third experiment.
The AGA model was established in the same manner as the third experiment, and the administration was carried out as follows: The AGA model was established by injecting dihydrotestosterone into the experimental mice. Dihydrotestosterone (DHT) solution was injected subcutaneously at multiple points every day, 100 μL/mouse (5 mg/kg body weight), and then the drug was administered after 3 h of absorption. CRT-3 and CRT-1 protein solutions were applied externally. 100 μL of protein solution was applied, and 100 μl of minoxidil MNX was applied. The solvent formula comprised 50% ethanol, 20% propylene glycol, and 30% pure water.
The scoring criteria and scoring process were the same as those in the third experiment.

[4] = system: mice with androgenic alopecia; test: Second experiment: testosterone hair loss model, hair growth, skin blackness, scanning electron microscopy and hair follicle count; type: in vivo, C57BL/6 male mice; conditions: for hair growth on the back skin: 17th day, 0.15 mL/mouse once a day; for blackness of the back skin (color tester): Day 17; for blackness of the back skin (color tester) / number of hair follicles (pathological section): P<0.01
Description: Experimental animals: C57BL/6 male mice, 6-7 weeks old, weighing (20±2) g, were provided by Beijing Vital River Laboratory Animal Technology Co. Ltd., with the animal license number of SCXK (Beijing) 2021-0006. They were kept in a 12 h light/12 h dark environment, with free access to food and water. The mice were divided into normal control group (normal group, NC), model group (Model), experimental group C (rh-CRT-2, with a concentration of 0.35 mg/ml) including an injection group and an external application group, experimental group D (rh-CRT-3, with a concentration of 0.21 mg/ml) including an injection group and external application group, and positive control-minoxidil group (Minoxidil). The proteins were stored in a −70° C. refrigerator and diluted with physiological saline when used. There were 6 mice in each group.
Modeling and drug administration: First, the hair loss model was established. One day before the modeling, the hair in the center of the back of the experimental animal was removed with a skin preparation knife, and the prepared skin area was depilated with a depilatory cream. After 24 hours of depilation, the normal control group was given 75% ethanol, and other groups were injected with testosterone solution (5 mg/mL) prepared with 75% ethanol, 0.01 mL/mouse. Two hours later, the injection groups of experimental group C and experimental group D were injected on the back, 0.15 mL/mouse, once a day, for 17 consecutive days; the external application groups of experimental group C and experimental group D were applied on the back, 0.15 mL/mouse, once a day, for 17 consecutive days. The normal control group and the model group were externally applied with physiological saline, once a day, 0.15 mL/mouse, for 17 consecutive days. During the drug administration process, except for the normal control group, all other groups were injected with the modeling agent (testosterone), and administrated with drugs after 2 hours. […] After the experiment, the mouse skin was pathologically sectioned as follows: The skin pathological tissue was fixed in 4% paraformaldehyde, trimmed, dehydrated and transparent, and then embedded. The slices were cut with a thickness of 6 μm using a paraffin slicer, and further dewaxed, stained, dehydrated, transparent and sealed. The hair follicles in different areas were observed under an optical microscope, and the number of hair follicles was statistically analyzed.
Scanning electron microscopy observation: At the end of the experiment, hair shafts were randomly plucked from the newly formed hair area on the back of each group of mice. Three mice were selected from each group. The plucked hair shafts were fixed and the changes of hair shafts and hair cuticles were observed by scanning electron microscopy.
Statistical analysis: All data were processed using SPSS 17.0 software. One-way ANOVA was used for comparisons among multiple groups. Data were expressed as mean±standard deviation (x±s). P<0.05 was considered statistically significant, and P>0.05 was not considered statistically significant.

[5] = external application group, compared with the model group
[6] = injection group, compared with the model group

Molecule | changes in hair observed by dermatoscope [1] | hair cuticles observed by scanning electron microscopy [1] | hair growth score compared with the Model group ([2]; external application 100 μL, CRT 0.35 mg/ml, MNX 5 mg/ml, P<0.05) | hair growth score compared with MNX ([2]; external application, P>0.05) | hair growth score compared with the Model group ([3]; P<0.05) | hair growth score compared with MNX ([3]; external application, P>0.05) | hair growth on the back skin ([4]; external application group) | hair growth on the back skin ([4]; injection group) | blackness of the back skin (color tester) [4, 5] | blackness of the back skin (color tester) [4, 6] | hair cuticles under scanning electron microscopy [4, 5] | hair shafts under scanning electron microscopy [4, 5] | number of hair follicles (pathological section) [4, 5] | hair cuticles under scanning electron microscopy ([4]; injection group) | hair shafts under scanning electron microscopy ([4]; injection group) | number of hair follicles (pathological section) [4, 6] | hair growth score compared with the CRT-1 group ([3]; external application, P<0.05)
CC(C)(C)NC(=O)[C@H]1CC[C@H]2[C@@H]3CC[C@H]4NC(=O)C=C[C@]4(C)[C@H]3CC[C@]12C [finasteride, reference compound] | smooth hair | arranged neatly | – | – | – | – | – | – | – | – | – | – | – | – | – | – | –
B1 | smoother | arranged neatly | significantly higher | no significant difference | significantly higher | no significant difference | – | – | – | – | – | – | – | – | – | – | –
B2 | – | – | – | – | significantly higher; also recorded: significantly increased | – | promoted hair growth | promoted hair growth | significantly increased | significantly increased | dense | became thicker | significantly promoted | dense | thin | significantly promoted | better than; also recorded: significantly increased
